Experimental data: paper PMC11640315

Target: Retinoid X receptor of turbot, HA-tagged (pcDNA3.1-RXR-HA) (turbot (Scophthalmus maximus))

## Farnesoid X receptor of turbot, Flag-tagged (pcDNA3.1-FXR-Flag)
  activity of the SHP promoter, dual-luciferase reporter assay in HEK293 cells; co-transfection of FXR and RXR plasmids against the FXR plasmid: 3 times
